The text below walks through data of the nanobody polyreactivity screen of Harvey et al. (2022).

The series can be described thus: yeast display, Sf9 membrane polyspecificity reagent, FACS + sequencing; frameworks hold sequencing errors. The essentials:
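Galactose induction of a Saccharomyces cerevisiae BJ5465 synthetic nanobody display library ran 36–48 hours. The cells were then stained for 1 hour at 4 °C with 10% biotinylated, detergent-solubilized Sf9 membrane reagent, pulled down on streptavidin microbeads and FACS-sorted into low and high (top ~1%) gates on expression and reagent-binding fluorescence. Labels for polyreactivity follow the gate of origin.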
Consider “QVQLVESGGGLVQAGGSLRLSCADSGSIFRDNVMGWYRQAPGKEREFVAAISRRGGITYYADSVKGRFTISRDNAKNTVYLQMNSLKPEDTAVYYCATTGGRQYGYWGQGTQVTVSS”, for which the “polyreactivity (PSR sort gate)” value is reported as “high polyreactivity”.
In the case of “QVQLVESGGGLVQAGGSLRLSCADSGSIFSKYAMGWYRQAPGKERELVAAISRSGGRTYYADSVKGRFTISRDNAKNTVYLQMNSLKPEDTAVYYCAADRSYYTWFGGDYWGQGTQVTVSS”, the “polyreactivity (PSR sort gate)” value was “high polyreactivity”.
For the sequence “QVQLVESGGGLVQAGGSLRLSCADSGSIFVYNAMGWYRQAPGKERELVAAITTGGSTNYADSVKGRFTISRDNAKNTVYLQMISLKPEDTAVYYCAVEGYPGRYRDPGDLYYYWGQGTQVTLSS”, the “polyreactivity (PSR sort gate)” value is listed as “low polyreactivity”.
Take “QVQLVESGGGLVQAGGSLRLSCADSGSIFWGNAMGWYRQAPGKERELVAAITRGGSTYYADSVKGRFTISRDNAKNTVYLQMNSLTPEDTAVYYWAVLSRRYAAYDYWGLGTQVTVSS”: the “polyreactivity (PSR sort gate)” value is “high polyreactivity”.
With “QVQLVESGGGLVQAGGSLRLSCADSGSIFYTYAMGWYRPAPGKERELVAAITRSGGSTNYADSVKGRFTITRDNAKYTVYLQMNSLKPEDNAVYYCAAVFNWAPYFYYYWGQRTQVTVSS”, the “polyreactivity (PSR sort gate)” value is “high polyreactivity”.
“QVQLVESGGGLVQAGGSLRLSCADSGSSFPSYAMLWYRQAPGKERELVAAISSSGGRTYYADYVKGRFTISRDNAKNTVYLQMNSLIPVDTAVYYCAADRRKWPTGGYWGEGTQVTVSS”: the “polyreactivity (PSR sort gate)” value was “high polyreactivity”.
For “QVQLVESGGGLVQAGGSLRLSCADSGSTFPFYAMGWYSHSPGKERELVAAITSGGSTYADYVKGRFTISRDNAKNTVYLQMNSLNPEDTAVYYCAGSWPRWWRFGYWGQGTQVTVSS” the value was “low polyreactivity”; for “QVQLVESGGGLVQAGGSLRLSCADSGSTFQANAMGWYRQAPGKERELVATISNDGSTKYADSVKGRFTISRDNAKNTVYLQMNSLKPEDTALYYCAADSARHGRDTYQPEYRNDYWGQGTQVTVSS”, “low polyreactivity”.
In the case of “QVQLVESGGGLVQAGGSLRLSCADSGSTFRYYAMGWYRQAPGKERELVAAITKNGGSTYYADSVKGRFTISRDNAKNTVYLEMNSLKPEDTAVYYCAVQFSYSGWYYVSYYYWGQGTQVTVSS” it was “high polyreactivity”; in that of “QVQLVESGGGLVQAGGSLRLSCADSGSTFTSNAMRWYRQAPGKEREFVAAINWGGSITYYADSVKGRFTISRDNAKNTVYLQMNSLKPEDTAVYYCAAETYYDTYYPEGDYWGQGTQVTVSS”, “low polyreactivity”.
On to “QVQLVESGGGLVQAGGSLRLSCADSGSTFTVYVMGWYRQAPGKETEFVAAITRIGGSTYYADSVKGRFTISRDYAKNTVYLQRNCLKTEDTAVYYCATYHTNSYYQLLYDYWGQGTQVTVSS”, for which the “polyreactivity (PSR sort gate)” value was “low polyreactivity”.
For “QVQLVESGGGLVQAGGSLRLSCADSGSTFYHNAMGWYRQAPGKERELDDAIRFSGTSTYYADSVKGRFTISRDNAKNTVYLQMNSLKPEDTAVYYCAAEVSSPAQREFDYWGQGTQVTVSS” the value was “low polyreactivity”.
In the case of “QVQLVESGGGLVQAGGSLRLSCADSGSTFYRYAMGWYRPAPGKERELVAAISKRGGSTYYADSVKGRFTISRDNAKNTVYLQMNSLKPEDTAVYYCAADPFHYGGGDDYWGQGTQVTVSS”, the “polyreactivity (PSR sort gate)” value is “high polyreactivity”.
In the case of “QVQLVESGGGLVQAGGSLRLSCADSGSTITYYTMGWYRQAPGKERDLVAAISGSGGRTYYADSVKGRFTISRDNAKNTVYLQMNSLKPEDTAVYYCAAGYQLSRYDYWGQGTQVTVSS” it was “high polyreactivity”; in that of “QVQLVESGGGLVQAGGSLRLSCADSGSTIYGYAMGWYRQAPGKERELVAAISISGGGTYYADSVKGRFTISRDNAKNSVYLQMNSLKPEDTAVYYCARRYFWGQGTQVTVSS”, “low polyreactivity”; in that of “QVQLVESGGGLVQAGGSLRLSCADSGYIFYYNAMGWYRQAPGKERDLVATITSGGSTYYADSLKGRFTISRDNAKNTVYLQMNSLKPEDTAVYYCAAPSQSIRYTYIRSYYWGQGTQVTVSS”, “low polyreactivity”.
“QVQLVESGGGLVQAGGSLRLSCADSRFNYSYNAMGSYRKAPGKERELVAAISTSGGRTYYADSVKGRFTISRDNAKNTVYLQMNSLKPEDTAVYYCAALSRNQYDPQSYVYWGQGTQVTGSS”: the “polyreactivity (PSR sort gate)” value is given as “high polyreactivity”.
As for “QVQLVESGGGLVQAGGSLRLSCAGSGFIFNVYAMGWYRQAPGKARELVAAISRSGGSTYYADSVKGRFTISRDNAKNTVYLQLNSLKPEDTAVYYCNARTPPSYYDMGYWGQGTQVTVSS”, the “polyreactivity (PSR sort gate)” value is recorded as “high polyreactivity”.
For the sequence “QVQLVESGGGLVQAGGSLRLSCAGSGITFVAYAMGWYRQAPGKDRELVAAISGGGGSTYYADSVKGRFTISRDNAKNTVYLQMNSLKPEDTAVYDCNAEPYTSSGGYRGYDFDYWGQGTQVTVSS”, the “polyreactivity (PSR sort gate)” value is on record as “low polyreactivity”.
Regarding “QVQLVESGGGLVQAGGSLRLSCAGSGRIFQRNDMGWYRQAPGKARELVAGITGCGGRTYYADSVKGRFTISRDNEKNTVYLQMNSLKPEDTAVYYCAAALWSSRGRVLSRRDYWGQGTQVTVSS”, the “polyreactivity (PSR sort gate)” value is listed as “high polyreactivity”.
Consider “QVQLVESGGGLVQAGGSLRLSCAGSGRIFREYPMGAYRHAPGKARELVAAITASGGGTYYADSVKGRFTLSRDNAKNTVYLQMNSLKPEDSAVYYCNAVLAPGGYDYWGQGTQVTVSS”, for which the “polyreactivity (PSR sort gate)” value is “low polyreactivity”.
As to “QVQLVESGGGLVQAGGSLRLSCAGSGRIFTDYTMGWYRQAPGQERELVAAISYSGGSTYYADSVKGRFTISRDNAKNTVYLQMNSLKPEDTAVYYCNKDYYLHEGYGYWGQGTQVTVSS”, the “polyreactivity (PSR sort gate)” value is “low polyreactivity”.
For “QVQLVESGGGLVQAGGSLRLSCAGSGSIFGVYDLGWYRQAPGKERELVAVINSNGGSTYYADSVKGRFTISRDNAKNTVYLQMNSLKPEDTAVYYCAADYQSYVYIGYGYWGQGTQVTVSS”, the “polyreactivity (PSR sort gate)” value is “low polyreactivity”.
With “QVQLVESGGGLVQAGGSLRLSCAGSGSIYSYNAMGWYRQAPGKERELVAAIDWSGGSTYYADSVKGRFTLSRDNAKNTVYLQMNSLKPEDTAVYYEYDYWGQGTQVTVSS”, the “polyreactivity (PSR sort gate)” value is on record as “low polyreactivity”.
In the case of “QVQLVESGGGLVQAGGSLRLSCAGSGSTFGWYVMGWYRQAPGKERELVASITGSGGSTYYADSVKGRFTISRDNAKNTAYLQMNSLKPEDTAVYYCAADTGWYDDWTHDYWGQGTQVTVSS” it was “low polyreactivity”; in that of “QVQLVESGGGLVQAGGSLRLSCAPSGFIFDGYTMGWYRQAPGKETELVAAITTSGTSTYYADSVKGRFTISRDNAKNTVYLQMNSLKPEDTAVYYCAARQYRHRVKYYYWGQGTQVTVSS”, “high polyreactivity”.
Regarding “QVQLVESGGGLVQAGGSLRLSCAPSGFIFRYYAMGWYRHAPGKERELVAAISRTSGRTYYADSVKGRFTISRDNAKNTVYLQMNSLKPEYTAVDYCAAVVRNPGTYEYWGQGTQVTVSS”, the “polyreactivity (PSR sort gate)” value is given as “high polyreactivity”.
For “QVQLVESGGGLVQAGGSLRLSCAPSGFTFLKNAMGWYRQAPGKERELVAAITGSGGSTYYADSVKGRFTISRDTEKNTVYLQMYSLKPEDTAVYYCNVRRGLRDYEYWGQGTQVTVSS”, the “polyreactivity (PSR sort gate)” value is “high polyreactivity”.
Take “QVQLVESGGGLVQAGGSLRLSCAPSGIIFFAYAMGWYRQAPGKERELVAAISSSGGRTYYADSVKGRFTISRDNAKHTVYLQMNSLKPEETPVYYCNARWHGSFDYWGQGTQVTVSS”: the “polyreactivity (PSR sort gate)” value is “low polyreactivity”.
Take “QVQLVESGGGLVQAGGSLRLSCAPSGITLVRYAMGWYRQAPGKERELVAAISSSGGSTYYADSVKGRFTISRDNAMNPVYLQMNSLKPEDTAVYYCAKRLYYGDPPTYDYWGQGTQVTVSS”: the “polyreactivity (PSR sort gate)” value is listed as “high polyreactivity”.
Turning to “QVQLVESGGGLVQAGGSLRLSCAPSGNIFAINALGWYRQAPGKESELVATITGGGGSTSYADSVKGRFTISRDNAKNTVYLQMNSLKPEDTAVYSCAADTVYYYGEWYDYWNYVWFDYWGQGTQVTVSS”, the “polyreactivity (PSR sort gate)” value is reported as “low polyreactivity”.
In the case of “QVQLVESGGGLVQAGGSLRLSCAPSGRIFAYNTMGGYRQAPGKERELVAVSTSGGSTNYADSVKRRFTISRDNAKNTVYLQMNSLKTEDTAVYYCATLETTGVNYWGQGTQVTVSS”, the “polyreactivity (PSR sort gate)” value was “high polyreactivity”.
In the case of “QVQLVESGGGLVQAGGSLRLSCAPSGRIFKRNTMGWYRQAPGKVRELVAAITGSSGSTYYADSVKGRFTISRDNAKNNVLLQMNSLKPEDTAVYYCNTVRSVYQYWPYNYWGQGTQETVSS” it was “high polyreactivity”.
For “QVQLVESGGGLVQAGGSLRLSCAPSGRIFSWNAMGWYRQAPGKERELVAAISVRGGSTYADSVKGRFTISRDNAKNTVYLQMNSLKPEDTAVYYCAKTYYPYRLGEGQYEYDYWGQGTQVTVSS”, the “polyreactivity (PSR sort gate)” value is “low polyreactivity”.
In the case of “QVQLVESGGGLVQAGGSLRLSCAPSGRIFSYNTMGWYRQAPGKERELVAAISRGGSTYYADSVKGRFTISRDNAKNTVYLQMNSLKPEDTAVYYCNALLPPGSRKYNYWGQGTQVTVSS” it was “high polyreactivity”.
As to “QVQLVESGGGLVQAGGSLRLSCAPSGRIFTRYARGWYRQAPGKERELVAVITRSGGSTYYADSVKGRFTISRDNAKNTVYLQMNSLKPEDTAVYYCAAKYYGEMYYWGQGTHVTVSS”, the “polyreactivity (PSR sort gate)” value was “low polyreactivity”.
With “QVQLVESGGGLVQAGGSLRLSCAPSGRIFWRYAMGWYRQAPGKERELVAGITYSGGRTYYADSVKGRFTISRDNAKNSVFLQMNSLKPEDSAVYYCAARGYFDALVDYWGQGTQVTVSS”, the “polyreactivity (PSR sort gate)” value is “low polyreactivity”.
“QVQLVESGGGLVQAGGSLRLSCAPSGRIFYAYAMGWYRHAPGKERELVAAITIGGNTNYADSVKGRFTSSRDNAKNTVYLQMNSLKPEVTAVYDCNARTYYYPWRGYHVVGSNDLGYWGQGTQVTVST”: the “polyreactivity (PSR sort gate)” value is reported as “low polyreactivity”.
“QVQLVESGGGLVQAGGSLRLSCAPSGRTFKVNDMGWYRQAPGKERELVAAINYRGGRTYYADSVKGRFTISRDNAKNNFYLQMNSLKPEDTAFYYCNAQSGVVADDYWGQGTQVTVSS”: the “polyreactivity (PSR sort gate)” value is listed as “high polyreactivity”.
Take “QVQLVESGGGLVQAGGSLRLSCAPSGRTFRYYTMGWYRQAPGKERELVAAISSAGRTYYADSVKGRFTISRDNAKNTVYLQMNSLKPEDTAVYYCAAYGGDKIRMDYWGQGTQVTVSS”: the “polyreactivity (PSR sort gate)” value is recorded as “high polyreactivity”.
With “QVQLVESGGGLVQAGGSLRLSCAPSGRTFVHYTMGWYRQAPGKERELVAAISGTGTSTYYADSVKGRFTISRDNAKNTVYLQMNSLKPEDTAVYYCARRYWYPDAFYRYDYWGQGTQVTVSS”, the “polyreactivity (PSR sort gate)” value is listed as “low polyreactivity”.
